From publication PMC2885523

Molecular target: MP81, in vitro-synthesized, [35S]-labeled (T. brucei)
Experiment: co-IP

## TbTUT4-MD (TbTUT4 TUTase with grafted RET2 middle domain), in vitro-synthesized, [35S]-labeled (from UniProt Q381M1;Q86MV5)
  fold increase of immunoprecipitation on addition of MP81: 2 fold
